Numbering of substitutions follows the chain as printed. Like-named read-outs stand apart in the source and are kept apart here.
T1: human MerTK-his protein (human, UniProt Q12866 21-505)
T1 construct: extracellular domain; also called hMerTK-His; human MerTK protein
T1 sequence (looked up): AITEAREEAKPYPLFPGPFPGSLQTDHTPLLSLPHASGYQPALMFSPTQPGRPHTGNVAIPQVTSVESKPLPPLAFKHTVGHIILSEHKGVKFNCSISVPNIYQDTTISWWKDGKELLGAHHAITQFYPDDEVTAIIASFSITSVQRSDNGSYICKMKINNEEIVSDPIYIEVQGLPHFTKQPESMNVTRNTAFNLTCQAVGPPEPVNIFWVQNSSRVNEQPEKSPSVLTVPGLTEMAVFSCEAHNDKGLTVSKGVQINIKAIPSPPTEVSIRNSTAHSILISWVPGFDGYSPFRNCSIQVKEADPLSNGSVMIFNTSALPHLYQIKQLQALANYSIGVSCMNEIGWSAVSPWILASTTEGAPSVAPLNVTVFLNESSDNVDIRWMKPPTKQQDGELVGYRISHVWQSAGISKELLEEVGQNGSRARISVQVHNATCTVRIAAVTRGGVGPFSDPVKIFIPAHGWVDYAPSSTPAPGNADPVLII

T2: human MerTK expressed on cells (human, UniProt Q12866 21-999)
T2 construct: whole, on cells; also called CHO-K1-hMerTK; CHO-K1-MerTK
T2 sequence (looked up): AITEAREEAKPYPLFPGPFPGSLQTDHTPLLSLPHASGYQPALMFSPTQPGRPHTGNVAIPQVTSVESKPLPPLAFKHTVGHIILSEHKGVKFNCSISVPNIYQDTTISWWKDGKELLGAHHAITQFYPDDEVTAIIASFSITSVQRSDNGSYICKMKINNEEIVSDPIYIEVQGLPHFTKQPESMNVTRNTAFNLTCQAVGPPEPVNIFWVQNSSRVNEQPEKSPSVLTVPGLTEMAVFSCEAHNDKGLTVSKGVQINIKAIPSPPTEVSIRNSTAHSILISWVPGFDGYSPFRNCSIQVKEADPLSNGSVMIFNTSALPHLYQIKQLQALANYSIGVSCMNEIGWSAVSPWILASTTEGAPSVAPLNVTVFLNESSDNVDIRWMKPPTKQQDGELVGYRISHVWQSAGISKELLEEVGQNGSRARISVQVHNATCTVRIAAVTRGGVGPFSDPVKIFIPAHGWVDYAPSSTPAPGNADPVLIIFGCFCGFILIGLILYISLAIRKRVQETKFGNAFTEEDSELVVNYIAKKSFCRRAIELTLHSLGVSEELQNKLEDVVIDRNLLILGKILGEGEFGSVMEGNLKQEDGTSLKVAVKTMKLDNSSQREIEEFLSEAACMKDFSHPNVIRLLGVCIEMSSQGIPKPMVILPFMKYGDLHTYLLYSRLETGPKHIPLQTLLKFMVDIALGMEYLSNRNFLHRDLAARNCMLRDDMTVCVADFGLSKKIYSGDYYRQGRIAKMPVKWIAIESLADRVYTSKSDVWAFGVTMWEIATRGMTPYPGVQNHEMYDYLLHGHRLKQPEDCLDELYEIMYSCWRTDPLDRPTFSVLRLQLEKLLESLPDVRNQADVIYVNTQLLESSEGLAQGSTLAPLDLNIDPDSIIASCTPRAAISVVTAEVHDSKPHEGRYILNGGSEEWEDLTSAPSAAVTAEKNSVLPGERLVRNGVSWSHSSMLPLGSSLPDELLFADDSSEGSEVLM

T3: Human MerTK-mouse Fc fusion protein (human, UniProt Q12866 21-499, limits assumed)
T3 construct: also called hMerTK; Human MerTK-mouse Fe fusion protein
T3 sequence (looked up): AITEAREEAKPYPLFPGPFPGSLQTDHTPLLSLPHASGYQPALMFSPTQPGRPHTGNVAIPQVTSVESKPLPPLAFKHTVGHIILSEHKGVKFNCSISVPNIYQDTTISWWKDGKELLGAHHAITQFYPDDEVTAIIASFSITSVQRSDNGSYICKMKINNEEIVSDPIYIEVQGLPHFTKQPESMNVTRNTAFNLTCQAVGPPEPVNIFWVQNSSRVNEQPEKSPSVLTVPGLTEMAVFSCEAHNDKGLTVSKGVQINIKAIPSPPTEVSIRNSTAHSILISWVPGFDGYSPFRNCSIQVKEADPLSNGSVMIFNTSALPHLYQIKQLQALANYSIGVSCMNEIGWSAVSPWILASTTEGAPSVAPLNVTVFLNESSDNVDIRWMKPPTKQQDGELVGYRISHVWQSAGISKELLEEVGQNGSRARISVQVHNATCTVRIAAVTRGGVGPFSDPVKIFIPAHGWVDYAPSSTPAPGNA

B1: 254B4D9 chimeric monoclonal antibody (antibody, V domains shown)
VH: QIQLVQSGPELKKPGETVKISCKASGYTFTAYGMSWVKQAPGKGLQWMGWINTYSGVPTYTDDFKGRFAFSLEASASTAFLQINNLKNEDTSTYFCARRAAVVAKYWYFDVWGTGTTVTVSS
VL: DIQMTQSPSSLFASLGGKVIITCKSSQDINKRISWYQHKPGKGPRLLIHSTSSLQPGIPLRFSGSGSGRDYSFSISNLEPEDIATYFCLQYDNLLTFGAGTKLELK
B2: 10F7D9 chimeric monoclonal antibody (antibody, V domains shown)
VH: QIQLVQSGPELKKPGETVKISCKASGYTFTNYGMNWVKQAPGKGLKWMGWINTYTGEPTYADDFKGRFAFSLETSASTAYLQINNLKNEDLATYFCATYGHYAWFAYWGQGTLVTVSA
VL: QIVLSQSPAILSASPGEKVTMTCRASSSVSYMHWYQQKSGSSPKPWIYATSNLASGVPARFSGSGSGTSYSLTISRVEAEDAATYFCQQWGTKPLTFGAGTKLELK
B3: 85H8D5 chimeric monoclonal antibody (antibody, V domains shown)
VH: QIQLVQSGPELKKPGETVKISCMASGYTFTTHGVTWVKQAPGQGLQRMGWINTYSGVPTYADDFKGRFVFSLETSANTAHLQINNLKNEDTATYFCARTNNYRYFDVWGTGTTVTVSS
VL: B2 VL with A13S, S39P, S71F, F86Y, G91N, K93D, L95P, A99G, L105I
B4: 276C2D1 chimeric monoclonal antibody (antibody, V domains shown)
VH: QVQLQQSGPELVKPGASVKLSCKASGYTFTSYDINWVKQRPGLGLEWIGWIYPRDGYTKYNEKFKGKATLAVDTSSSTAYMELHSLTSEDSAVYFCARGYYSNLYYFDYWGQGTTLTVSS
VL: EVVLTQSPPTMAASPGEKITITCSASSSISSNYLHWYQQKPGFSPKLLIYRTSNLASGVPARFSGSGSGTSYSLTIGTMEAEDVATYYCQQGRSIPLTFGAGTKLELK
B5: 280C6A3 chimeric monoclonal antibody (antibody, V domains shown)
VH: B4 VH with T28S, S31T, L43Q, Y57S, A71T, V72L, S77N, E82G, S102D
VL: B4 VL with V2I, P9T, I29V, S94I, I95V
B6: 265F11B5 chimeric monoclonal antibody (antibody, V domains shown)
VH: B4 VH with K19R, S31T, K67R, A97T, S102D
VL: B4 VL with V2I, P9T, M11V, S28I, L34F, K40R, I95V
B7: 293C2B7 chimeric monoclonal antibody (antibody, V domains shown)
VH: B4 VH with L43Q, N61K, A71T, Y100F
VL: B4 VL with V2I, P9T, A13T, A61D
B8: 300A5A3 chimeric monoclonal antibody (antibody, V domains shown)
VH: B4 VH with S31T, Y80S, S102D, Y109N, Q112P
VL: B4 VL with V2N, P9T, M11V, S28I, V84A, I95V
B9: 252C12B10 chimeric monoclonal antibody (antibody, V domains shown)
VH: QVQLQQPGTELVKPGASVKLSCKTSGYTFTSYWMHWMKQRPGQGLEWLGHINPSTGGSNYNEKFKSKATLTVDKSSNTAYMQLSSLTSEDSAVYYCARPRGFYGYSYWYFDVWGSGTTVTVSS
VL: DIQMTQTTSSLSASLGDRVTISCSASQDINNYLNWYQHKPDGTIKVLIYFTSSLHSGVPSRFSGSGSGTEYSLTISNLEPEDIATYYCQQYSKLPPTFGSGTKLEIK
B10: 216G3D6 chimeric monoclonal antibody (antibody, V domains shown)
VH: QVTLKESGPGILQPSQTLSLTCSFSGFSLSTSGMGVGWIRQPSGKGLEWLAHIWWDDDKHCNPALKSRLTISKDTSSNQVFLKIASLDTADTATYYCTQMTMTREFAYWGQGTLVTVSA
VL: DIQMTQTISSLSASLGDRVTISCSAGQGISNYLNWYQQKPDGTVKLLIYYTSRLHSGVPSRFSGSGSGTDFSLTISNLEPEDIATYFCQQYSKFPYTFGGGTKLEIK
B11: 247E5A8 chimeric monoclonal antibody (antibody, V domains shown)
VH: DVQLQESGPGLVKPSQSLSLTCSVTGYSITGGYYWTWIRQFPGNKLEWMGYISYDGDNNYNPSLKNRISITRDTSKNQFFLNLNSVTTEDTATYYCAREGGRLRTMDYWGQGTSVTVSS
VL: QIVLTQSPAIMSASPGEKVTITCRASSSVNYMHWFQQKPGTSPKLWIYTTSNLASGVPARFSGSGSGTSYSLTISRMEAEDAATYYCQQRSSYPFTFGSGTKLEIK

Experiments:
human MerTK-his protein = molecular target: T1, human MerTK-his protein; assay: SPR Biacore T200, antibody captured on Protein A chip
Description: The binding affinity of the MerTK chimeric antibodies to human MerTK-his protein was tested with Biacroe™ T200 using a capture method. Briefly, the antibodies were captured with a Pro-A chip. […] The antigen was allowed to dissociate for 420-800 s. Data analysis was carried out using Biacore™ T200 evaluation software.

[1] = molecular target: T2, human MerTK expressed on cells; assay: FACS on CHO-K1 cells overexpressing human MerTK, MFI (PE)
Description: To evaluate the binding property to the antigen expressed on the cells, the chimeric monoclonal antibodies were analyzed for their binding to human MerTK overexpressed on CHO-K1 cells by FACS. Briefly, human MerTK overexpressing CHO-K1 (CHO-K1-MerTK) cells were firstly incubated with 5-fold serially diluted mAbs starting at 20 nM at 4° C. for 1 hour. After washing with FACS buffer, the PE conjugated anti-human IgG-Fc secondary antibody was added to each well and incubated at 4° C., for 30 mins. The mean fluorescence intensity (MFI) of PE were evaluated by QuantAnalyzer 16.

[2] = molecular target: T3, Human MerTK-mouse Fc fusion protein; assay: FACS blocking: binding of human MerTK-mouse Fc to Jurkat cells overexpressing human Gas6, MFI (AF488)
Description: (§1) To evaluate the blocking effects of anti-hMerTK mAbs on hMerTK binding to its ligand hGas6, a receptor blocking assay was set-up. Briefly, Jurkat cells engineered to overexpress human Gas6 were added to the 96-well microplates at a density of 5×10⁴ cells per well. Human MerTK-mouse Fe fusion protein (50 μL/well, […]) and the MerTK chimeric antibodies with a 3-fold serial dilution starting from 120 nM at a volume of 50 μL were added to the 96-well plates and incubated at 4° C. for 30 mins. After washing with FACS buffer, the plates were incubated with diluted Alex Fluor 488 conjugated goat anti-mouse IgG antibody for 30 mins at 4′C. After washing, the plates were analyzed by QuantAnalyzer 16.

[3] = molecular target: T3, Human MerTK-mouse Fc fusion protein; assay: as above; remark: listed apart in the source
Description: as §1

| Binder | Kd (human MerTK-his protein) [nM] | koff (human MerTK-his protein) [s⁻¹] | kon (human MerTK-his protein) [M⁻¹ s⁻¹] | EC50 [1] [nM] | Top [1] | IC50 [2] [nM] | IC50 [3] [nM] |
| --- | --- | --- | --- | --- | --- | --- | --- |
| B1 | 11.9 | 0.000782 | 65500 | 0.19 | 5630 MFI (PE) | ~0.773 | – |
| B2 | 4.29 | 0.00238 | 554000 | – | – | – | 0.696 |
| B3 | 11.4 | 0.00664 | 582000 | – | – | – | 0.802 |
| B4 | 12.7 | 0.00223 | 175000 | 0.04 | 7750 MFI (PE) | 0.813 | – |
| B5 | 3.08 | 0.000553 | 179000 | 0.044 | 8310 MFI (PE) | 0.701 | – |
| B6 | 1.22 | 0.000232 | 191000 | 0.061 | 9460 MFI (PE) | 0.798 | – |
| B7 | – | – | – | 0.064 | 7700 MFI (PE) | 0.779 | – |
| B8 | 1.36 | 0.00029 | 214000 | 0.076 | 8350 MFI (PE) | 0.867 | – |
| B9 | 5.33 | 0.00103 | 193000 | – | – | – | 0.78 |
| B10 | 0.852 | 8.97e-05 | 105000 | – | – | – | 0.802 |
| B11 | 4.59 | 0.000596 | 130000 | – | – | – | 0.787 |

From patent US20260028422A1 (CONCEPT TO MEDICINE BIOTECH, published 2026)
